Molecular target: human CD3 epsilon (human, UniProt P07766 23-207)
Experiment: cell-based or functional assay

Sequence of human CD3 epsilon (P07766 23-207): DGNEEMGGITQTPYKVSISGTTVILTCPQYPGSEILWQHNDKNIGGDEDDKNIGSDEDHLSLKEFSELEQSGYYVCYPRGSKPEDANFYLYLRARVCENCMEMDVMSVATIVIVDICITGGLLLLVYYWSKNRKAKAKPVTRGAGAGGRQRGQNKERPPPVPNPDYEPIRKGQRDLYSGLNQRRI

B1: epcoritamab CIEX-HPLC pre-acidic 1 fraction (bispecific antibody, human IgG1, kappa, lambda)
heavy 1: not shown
light 1: not shown
heavy 2: EVQLVESGGGLVQPDRSLRLSCAASGFTFHDYAMHWVRQAPGKGLEWVSTISWNSGTIGYADSVKGRFTISRDNAKNSLYLQMNSLRAEDTALYYCAKDIQYGNYYYGMDVWGQGTTVTVSSASTKGPSVFPLAPSSKSTSGGTAALGCLVKDYFPEPVTVSWNSGALTSGVHTFPAVLQSSGLYSLSSVVTVPSSSLGTQTYICNVNHKPSNTKVDKRVEPKSCDKTHTCPPCPAPEFEGGPSVFLFPPKPKDTLMISRTPEVTCVVVAVSHEDPEVKFNWYVDGVEVHNAKTKPREEQYNSTYRVVSVLTVLHQDWLNGKEYKCKVSNKALPAPIEKTISKAKGQPREPQVYTLPPSREEMTKNQVSLTCLVKGFYPSDIAVEWESNGQPENNYKTTPPVLDSDGSFFLYSRLTVDKSRWQQGNVFSCSVMHEALHNHYTQKSLSLSPG
light 2: not shown
modifications: N103 deamidated (49.9 rel %); N106 deamidated (15.1 rel %); residual signal peptide SEA before N-terminal E1 (42.9 rel %); trace levels of a 3005a HC fragment around N103/N106
For B1, the “Biological Activity (rel %), T-cell activation assay” value (“Biological Activity (rel %)” below) was 6 rel %.

B2: epcoritamab CIEX-HPLC acidic 3 fraction (bispecific antibody, human IgG1, kappa, lambda)
heavy 1: not shown
light 1: not shown
heavy 2: EVQLVESGGGLVQPDRSLRLSCAASGFTFHDYAMHWVRQAPGKGLEWVSTISWNSGTIGYADSVKGRFTISRDNAKNSLYLQMNSLRAEDTALYYCAKDIQYGNYYYGMDVWGQGTTVTVSSASTKGPSVFPLAPSSKSTSGGTAALGCLVKDYFPEPVTVSWNSGALTSGVHTFPAVLQSSGLYSLSSVVTVPSSSLGTQTYICNVNHKPSNTKVDKRVEPKSCDKTHTCPPCPAPEFEGGPSVFLFPPKPKDTLMISRTPEVTCVVVAVSHEDPEVKFNWYVDGVEVHNAKTKPREEQYNSTYRVVSVLTVLHQDWLNGKEYKCKVSNKALPAPIEKTISKAKGQPREPQVYTLPPSREEMTKNQVSLTCLVKGFYPSDIAVEWESNGQPENNYKTTPPVLDSDGSFFLYSRLTVDKSRWQQGNVFSCSVMHEALHNHYTQKSLSLSPG
light 2: not shown
modifications: N106 deamidated (76.0 rel %); trace levels of N103 deamidation
For B2, the “Biological Activity (rel %)” value was 90 rel %.

B3: epcoritamab CIEX-HPLC acidic 2a fraction (bispecific antibody, human IgG1, kappa, lambda)
heavy 1: not shown
light 1: not shown
heavy 2: EVQLVESGGGLVQPDRSLRLSCAASGFTFHDYAMHWVRQAPGKGLEWVSTISWNSGTIGYADSVKGRFTISRDNAKNSLYLQMNSLRAEDTALYYCAKDIQYGNYYYGMDVWGQGTTVTVSSASTKGPSVFPLAPSSKSTSGGTAALGCLVKDYFPEPVTVSWNSGALTSGVHTFPAVLQSSGLYSLSSVVTVPSSSLGTQTYICNVNHKPSNTKVDKRVEPKSCDKTHTCPPCPAPEFEGGPSVFLFPPKPKDTLMISRTPEVTCVVVAVSHEDPEVKFNWYVDGVEVHNAKTKPREEQYNSTYRVVSVLTVLHQDWLNGKEYKCKVSNKALPAPIEKTISKAKGQPREPQVYTLPPSREEMTKNQVSLTCLVKGFYPSDIAVEWESNGQPENNYKTTPPVLDSDGSFFLYSRLTVDKSRWQQGNVFSCSVMHEALHNHYTQKSLSLSPG
light 2: not shown
modifications: N103 deamidated (29.6 rel %); N106 deamidated (22.6 rel %); non-consensus glycosylation A1F at N106 (15.0 rel %); residual signal peptide SEA before N-terminal E1 (26.9 rel %)
B3 was tested, and the “Biological Activity (rel %)” value was 25 rel %.

B4: epcoritamab CIEX-HPLC acidic 2b fraction (bispecific antibody, human IgG1, kappa, lambda)
heavy 1: not shown
light 1: not shown
heavy 2: EVQLVESGGGLVQPDRSLRLSCAASGFTFHDYAMHWVRQAPGKGLEWVSTISWNSGTIGYADSVKGRFTISRDNAKNSLYLQMNSLRAEDTALYYCAKDIQYGNYYYGMDVWGQGTTVTVSSASTKGPSVFPLAPSSKSTSGGTAALGCLVKDYFPEPVTVSWNSGALTSGVHTFPAVLQSSGLYSLSSVVTVPSSSLGTQTYICNVNHKPSNTKVDKRVEPKSCDKTHTCPPCPAPEFEGGPSVFLFPPKPKDTLMISRTPEVTCVVVAVSHEDPEVKFNWYVDGVEVHNAKTKPREEQYNSTYRVVSVLTVLHQDWLNGKEYKCKVSNKALPAPIEKTISKAKGQPREPQVYTLPPSREEMTKNQVSLTCLVKGFYPSDIAVEWESNGQPENNYKTTPPVLDSDGSFFLYSRLTVDKSRWQQGNVFSCSVMHEALHNHYTQKSLSLSPG
light 2: not shown
modifications: N106 deamidated (61.4 rel %); N103 deamidated (5.8 rel %); non-consensus glycosylation G2F (3.4 rel %) and A1F at N106; residual signal peptide SEA before N-terminal E1 (12.1 rel %)
B4 was tested, and the “Biological Activity (rel %)” value was 28 rel %.

B5: epcoritamab CIEX-HPLC acidic 1 fraction (bispecific antibody, human IgG1, kappa, lambda)
heavy 1: not shown
light 1: not shown
heavy 2: EVQLVESGGGLVQPDRSLRLSCAASGFTFHDYAMHWVRQAPGKGLEWVSTISWNSGTIGYADSVKGRFTISRDNAKNSLYLQMNSLRAEDTALYYCAKDIQYGNYYYGMDVWGQGTTVTVSSASTKGPSVFPLAPSSKSTSGGTAALGCLVKDYFPEPVTVSWNSGALTSGVHTFPAVLQSSGLYSLSSVVTVPSSSLGTQTYICNVNHKPSNTKVDKRVEPKSCDKTHTCPPCPAPEFEGGPSVFLFPPKPKDTLMISRTPEVTCVVVAVSHEDPEVKFNWYVDGVEVHNAKTKPREEQYNSTYRVVSVLTVLHQDWLNGKEYKCKVSNKALPAPIEKTISKAKGQPREPQVYTLPPSREEMTKNQVSLTCLVKGFYPSDIAVEWESNGQPENNYKTTPPVLDSDGSFFLYSRLTVDKSRWQQGNVFSCSVMHEALHNHYTQKSLSLSPG
light 2: not shown
modifications: N103 deamidated (85.3 rel %); residual signal peptide SEA before N-terminal E1 (13.0 rel %)
In the case of B5, the “Biological Activity (rel %)” value is reported as 9 rel %.
